Reference: US20240100159A1, “USE OF IL-7R-ALPHA-GAMMA AGONIST PEPTIDES IN CELL MANUFACTURING” (MEDIKINE, INC., priority 2022, published 2024)

Molecular target: T1, hu-IL-7Rα subunit (human, UniProt P16871 21-239, limits assumed)
T1 construct: also called human interleukin-7 receptor subunit α; CD127
T1 sequence (looked up): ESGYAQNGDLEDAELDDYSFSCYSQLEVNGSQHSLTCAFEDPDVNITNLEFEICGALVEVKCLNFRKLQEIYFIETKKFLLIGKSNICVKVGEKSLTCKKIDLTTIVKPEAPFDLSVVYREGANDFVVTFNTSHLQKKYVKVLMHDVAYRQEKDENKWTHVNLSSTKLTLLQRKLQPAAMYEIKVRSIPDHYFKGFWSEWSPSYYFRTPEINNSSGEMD
Assay: phage ELISA competition assay

B1: SEQ ID NO 112 (peptide)
peptide: SLTVPWCTLDPGSMQCAWLQNR
notes: also called IL-7Rα ligand
IC50: < 10 µM
